± gives the uncertainty stated by the source.
Assay: amyloid nucleation score (Sup35N fusion, yeast selection) (log enrichment); library NNK1; higher = more nucleation; inactive = no reads after selection
How it was run: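 Peptides of 20 random codons fused to Sup35N were expressed in psi-negative yeast, induced 24 hours with 100 μM copper sulfate, then grown 7 days at 30°C on medium lacking adenine and uracil. Input and output plasmid inserts were Illumina-sequenced. Nucleation score is the DiMSum log enrichment of output over input reads, centred on the mode score of non-aggregating sequences, excluding sequences with under 100 input reads. Random libraries had three technical output replicates.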

**Q.** For LIWAVLCVKHTKEYVWLAHL, which amyloid nucleation score is on record?
**A.** Its amyloid nucleation score is -0.469 ± 0.54.

**Q.** For LIYAREDGEALWEAIRPTEK, which amyloid nucleation score is on record?
**A.** Its amyloid nucleation score is -0.047 ± 0.48.

**Q.** For LKLLFVTLKMLASMFFRGS, which amyloid nucleation score is on record?
**A.** The amyloid nucleation score was -1.28 ± 0.77.

**Q.** For LKNSVSFMADGS, which amyloid nucleation score is on record?
**A.** Its amyloid nucleation score is -0.327 ± 0.38.

**Q.** For LKSDMIADTTAL, which amyloid nucleation score is on record?
**A.** Its amyloid nucleation score is 2.67 ± 0.12.

**Q.** Which amyloid nucleation score does the source give for LKSPTWPMSHSDRLTHRLLC here?
**A.** Its amyloid nucleation score is 0.004 ± 0.69.

**Q.** With LKTEPHIRLSPLETRPV as the substance, how does the amyloid nucleation score read?
**A.** The amyloid nucleation score was 0.552 ± 0.77.

**Q.** Which amyloid nucleation score does the source give for LKWGMVLGAYIHEFGCNM here?
**A.** Its amyloid nucleation score is 0.804 ± 0.61.

**Q.** Which amyloid nucleation score does the source give for LKWRV here?
**A.** Its amyloid nucleation score is -0.771 ± 1.1.

**Q.** With LLAEASLVKETTLCYHSPSL as the substance, how does the amyloid nucleation score read?
**A.** Its amyloid nucleation score is 0.04 ± 0.56.

**Q.** With LLCDWDGQ as the substance, how does the amyloid nucleation score read?
**A.** Its amyloid nucleation score is 0.497 ± 0.43.

**Q.** With LLCICWLALICCLNSELGSQ as the substance, how does the amyloid nucleation score read?
**A.** The amyloid nucleation score was -0.675 ± 1.

**Q.** For LLCWRYFSCSYFLECVGSTS, which amyloid nucleation score is on record?
**A.** The amyloid nucleation score was -1.14 ± 0.86.

**Q.** For LLFCRFRSWDRDHRWCRCD, which amyloid nucleation score is on record?
**A.** Its amyloid nucleation score is 1.95 ± 0.66.

**Q.** For LLFFGYYAFDHICYAEYLSC, which amyloid nucleation score is on record?
**A.** Its amyloid nucleation score is 2.71 ± 0.14.

**Q.** With LLFGTHVPIRRGRFDASMIY as the substance, how does the amyloid nucleation score read?
**A.** Its amyloid nucleation score is 0.58 ± 0.5.

**Q.** For LLKRRTREIAALYRHSSNGY, which amyloid nucleation score is on record?
**A.** The amyloid nucleation score was 1.26 ± 0.57.

**Q.** For LLKSKRL, which amyloid nucleation score is on record?
**A.** The amyloid nucleation score was 0.563 ± 0.43.

**Q.** For LLLDTLVCVVKHTNTCFSKW, which amyloid nucleation score is on record?
**A.** Its amyloid nucleation score is 0.503 ± 0.26.

**Q.** For LLLLIN, which amyloid nucleation score is on record?
**A.** Its amyloid nucleation score is -0.663 ± 1.7.

**Q.** With LLMGFGGAFSVNTADPRLLV as the substance, how does the amyloid nucleation score read?
**A.** The amyloid nucleation score was -0.752 ± 0.65.

**Q.** Which amyloid nucleation score does the source give for LLMLGLLSQH here?
**A.** Its amyloid nucleation score is 0.427 ± 0.28.

**Q.** For LLMYSKWAFTDYGT, which amyloid nucleation score is on record?
**A.** The amyloid nucleation score was -0.147 ± 0.74.

**Q.** With LLNSFPSNCQVKDMELQGME as the substance, how does the amyloid nucleation score read?
**A.** The amyloid nucleation score was -0.176 ± 0.93.

**Q.** With LLNYGLRFCLVTARSELTYM as the substance, how does the amyloid nucleation score read?
**A.** The amyloid nucleation score was 0.979 ± 0.62.

**Q.** Which amyloid nucleation score does the source give for LLPWGYD here?
**A.** The amyloid nucleation score was 2.77 ± 0.15.

**Q.** Which amyloid nucleation score does the source give for LLRNGFHSVLI here?
**A.** Its amyloid nucleation score is 0.488 ± 0.25.

**Q.** Which amyloid nucleation score does the source give for LLRSILTMAY here?
**A.** The amyloid nucleation score was 0.605 ± 0.43.

**Q.** With LLSCSYMKIVFI as the substance, how does the amyloid nucleation score read?
**A.** Its amyloid nucleation score is 1.47 ± 0.16.

**Q.** Which amyloid nucleation score does the source give for LLSYFLRNPYMSNGTTGLHG here?
**A.** Its amyloid nucleation score is 0.144 ± 0.79.

**Q.** With LLVNGLMGMWPIFII as the substance, how does the amyloid nucleation score read?
**A.** The amyloid nucleation score was -1.03 ± 2.4.

**Q.** Which amyloid nucleation score does the source give for LLVRHEEKG here?
**A.** The amyloid nucleation score was 0.263 ± 0.42.

**Q.** For LMGDLYGSLRMCLVGSRWLL, which amyloid nucleation score is on record?
**A.** Its amyloid nucleation score is 0.082 ± 1.2.

**Q.** Which amyloid nucleation score does the source give for LMHKDISERDRSCLWL here?
**A.** Its amyloid nucleation score is 0.033 ± 0.5.

**Q.** For LMLGCGCECHVSSVSQKENM, which amyloid nucleation score is on record?
**A.** Its amyloid nucleation score is 0.301 ± 1.1.

**Q.** With LMLPMESAPKRLGEGVGPSR as the substance, how does the amyloid nucleation score read?
**A.** The amyloid nucleation score was 0.233 ± 0.47.

**Q.** For LMSEVRPAMLDSSVLRDCYD, which amyloid nucleation score is on record?
**A.** Its amyloid nucleation score is “inactive”.

**Q.** Which amyloid nucleation score does the source give for LMTRSVIVIRLMEEKSAA here?
**A.** The amyloid nucleation score was 0.163 ± 1.4.

**Q.** For LMVNYRLRLYFFVLDSCDGE, which amyloid nucleation score is on record?
**A.** The amyloid nucleation score was -0.348 ± 0.28.

**Q.** For LMYWLLLMEIRYNLKPLNRL, which amyloid nucleation score is on record?
**A.** The amyloid nucleation score was 2.29 ± 0.084.

**Q.** Which amyloid nucleation score does the source give for LNAKFIVKW here?
**A.** Its amyloid nucleation score is 0.588 ± 0.21.

**Q.** With LNHCVNMLRGRCGVPLLSVV as the substance, how does the amyloid nucleation score read?
**A.** The amyloid nucleation score was 0.551 ± 1.1.

**Q.** With LNHIRRTVR as the substance, how does the amyloid nucleation score read?
**A.** The amyloid nucleation score was 1.23 ± 0.53.

**Q.** For LNHNIFVFFLQIIQTHDIWF, which amyloid nucleation score is on record?
**A.** The amyloid nucleation score was 4.87 ± 0.09.

**Q.** For LNKVWFSWSRDKVRYTGMLV, which amyloid nucleation score is on record?
**A.** The amyloid nucleation score was -0.857 ± 0.48.

**Q.** With LNLGGSF as the substance, how does the amyloid nucleation score read?
**A.** Its amyloid nucleation score is “inactive”.

**Q.** Which amyloid nucleation score does the source give for LNLHS here?
**A.** The amyloid nucleation score was -0.384 ± 1.2.

**Q.** With LNLTMVGIYINDFL as the substance, how does the amyloid nucleation score read?
**A.** The amyloid nucleation score was 4.69 ± 0.099.

**Q.** Which amyloid nucleation score does the source give for LNPLVLSCSGEIDSMFNV here?
**A.** The amyloid nucleation score was 1.11 ± 0.34.

**Q.** With LNQPWYIRIQANIDFNR as the substance, how does the amyloid nucleation score read?
**A.** The amyloid nucleation score was 4.47 ± 0.079.

**Q.** For LNRFVPASRWDHLHL, which amyloid nucleation score is on record?
**A.** The amyloid nucleation score was -0.353 ± 1.7.

**Q.** Which amyloid nucleation score does the source give for LNRRMNRCCTWLNMCADFFA here?
**A.** Its amyloid nucleation score is 0.865 ± 0.75.

**Q.** With LNTWVGVGGWPE as the substance, how does the amyloid nucleation score read?
**A.** The amyloid nucleation score was -0.135 ± 0.78.

**Q.** Which amyloid nucleation score does the source give for LNYLYDIMLSSLTSQTDSMS here?
**A.** Its amyloid nucleation score is -0.689 ± 0.66.

**Q.** With LPCMGKLIYVCRSRLEREQS as the substance, how does the amyloid nucleation score read?
**A.** The amyloid nucleation score was 0.498 ± 0.62.

**Q.** Which amyloid nucleation score does the source give for LPDVKCVLLLMLHLEASRSA here?
**A.** The amyloid nucleation score was -0.21 ± 0.58.

**Q.** Which amyloid nucleation score does the source give for LPFLS here?
**A.** Its amyloid nucleation score is -0.116 ± 0.68.

**Q.** Which amyloid nucleation score does the source give for LPGYVGQ here?
**A.** Its amyloid nucleation score is 0.472 ± 0.78.

**Q.** With LPKMWYIDLFVSGVY as the substance, how does the amyloid nucleation score read?
**A.** The amyloid nucleation score was 0.241 ± 0.48.

**Q.** Which amyloid nucleation score does the source give for LPMLLFAHITFNMLNDVSPN here?
**A.** Its amyloid nucleation score is 5.94 ± 0.086.

**Q.** With LPTHHCGLNVSSDGSNSELR as the substance, how does the amyloid nucleation score read?
**A.** The amyloid nucleation score was 0.068 ± 0.46.

**Q.** With LPTVDMIWIRGFGFQELSWC as the substance, how does the amyloid nucleation score read?
**A.** The amyloid nucleation score was “inactive”.

**Q.** Which amyloid nucleation score does the source give for LPVLLSFVSYGS here?
**A.** The amyloid nucleation score was -0.162 ± 0.34.

**Q.** With LPWPRNRFCTLIDEIHTPVY as the substance, how does the amyloid nucleation score read?
**A.** The amyloid nucleation score was -0.167 ± 0.57.

**Q.** For LQAKMTIGAFFISYSSMYPG, which amyloid nucleation score is on record?
**A.** Its amyloid nucleation score is 2.74 ± 0.08.

**Q.** Which amyloid nucleation score does the source give for LQEVSWYSTVALTLSNLKWG here?
**A.** The amyloid nucleation score was -0.389 ± 0.46.

**Q.** Which amyloid nucleation score does the source give for LQFGWFMIYLIKFSPNLRGN here?
**A.** Its amyloid nucleation score is -1.18 ± 1.7.

**Q.** With LQSYWRYRVKRFV as the substance, how does the amyloid nucleation score read?
**A.** Its amyloid nucleation score is -0.39 ± 0.39.

**Q.** Which amyloid nucleation score does the source give for LQVKNVYGACFVCAMMVAWE here?
**A.** The amyloid nucleation score was 5.18 ± 0.09.

**Q.** Which amyloid nucleation score does the source give for LRAIRE here?
**A.** The amyloid nucleation score was 0.33 ± 0.63.

**Q.** For LRCLYIG, which amyloid nucleation score is on record?
**A.** Its amyloid nucleation score is -0.818 ± 0.86.

**Q.** For LRCYEDLFVGLAHGRMRYTG, which amyloid nucleation score is on record?
**A.** The amyloid nucleation score was -0.561 ± 1.7.

**Q.** For LRDISEH, which amyloid nucleation score is on record?
**A.** The amyloid nucleation score was -0.588 ± 0.53.

**Q.** For LREFLPLSNTVVGFTLDSYV, which amyloid nucleation score is on record?
**A.** The amyloid nucleation score was -0.526 ± 0.9.

**Q.** With LRFRFSLANAEGLMLPVRHK as the substance, how does the amyloid nucleation score read?
**A.** The amyloid nucleation score was -0.216 ± 0.48.

**Q.** For LRFVTINRRSVSVYSSNTKS, which amyloid nucleation score is on record?
**A.** The amyloid nucleation score was “inactive”.

**Q.** For LRGFESTRETVLGSMQQWCL, which amyloid nucleation score is on record?
**A.** The amyloid nucleation score was 1.03 ± 0.56.

**Q.** Which amyloid nucleation score does the source give for LRGVLMFMQVRDRADRGRSW here?
**A.** Its amyloid nucleation score is 0.061 ± 0.47.

**Q.** Which amyloid nucleation score does the source give for LRGVPLYFDGRHMWYAFSRY here?
**A.** The amyloid nucleation score was -0.424 ± 0.47.

**Q.** Which amyloid nucleation score does the source give for LRIPFTSWRYDNEMAVTGSG here?
**A.** The amyloid nucleation score was 0.394 ± 0.84.

**Q.** For LRKDGSGK, which amyloid nucleation score is on record?
**A.** The amyloid nucleation score was 1.06 ± 0.21.

**Q.** For LRKSWVQSKHCDIRPDSKAL, which amyloid nucleation score is on record?
**A.** Its amyloid nucleation score is 0.693 ± 0.68.

**Q.** For LRRIKCYTFMIAGSILVVGT, which amyloid nucleation score is on record?
**A.** The amyloid nucleation score was “inactive”.

**Q.** Which amyloid nucleation score does the source give for LRTDALFY here?
**A.** Its amyloid nucleation score is 0.577 ± 0.69.

**Q.** Which amyloid nucleation score does the source give for LRVAFIKLKHKKFNDMYRSM here?
**A.** The amyloid nucleation score was 0.156 ± 0.26.

**Q.** For LRVTSFMIMQLDLECPRCQI, which amyloid nucleation score is on record?
**A.** The amyloid nucleation score was -0.007 ± 0.46.
